Experimental data: publication PMC8503651, “The Stress-Active Cell Division Protein ZapE Alters FtsZ Filament Architecture to Facilitate Division in Escherichia coli” (Frontiers in Microbiology, 2021)

B4: FtsZ (native) (natural protein, Escherichia coli, UniProt P0A9A6 1-383, looked up)
chain: MFEPMELTNDAVIKVIGVGGGGGNAVEHMVRERIEGVEFFAVNTDAQALRKTAVGQTIQIGSGITKGLGAGANPEVGRNAADEDRDALRAALEGADMVFIAAGMGGGTGTGAAPVVAEVAKDLGILTVAVVTKPFNFEGKKRMAFAEQGITELSKHVDSLITIPNDKLLKVLGRGISLLDAFGAANDVLKGAVQGIAELITRPGLMNVDFADVRTVMSEMGYAMMGSGVASGEDRAEEAAEMAISSPLLEDIDLSGARGVLVNITAGFDLRLDEFETVGNTIRAFASDNATVVIGTSLDPDMNDELRVTVVATGIGMDKRPEITLVTNKQVQQPVMDRYQQHGMAPLTQEQKPVAKVVNDNAPQTAKEPDYLDIPAFLRKQAD
notes: FtsZ, tubulin-like GTPase and cell division protein of Escherichia coli; native (no tag named); Assembles into polymers with GTP; also called Native FtsZ; wild type FtsZ; source: E. coli BL21 (λde3), purified as described (Camberg et al., 2009)

Experiments:
[1] = target: ZapE (N-terminal six histidine fusion protein) (Escherichia coli) (UniProt P64612); test: co-sedimentation; phospholipid recruitment: Gfp-FtsZ (3 μM) with GTP (4 mM) added to ZapE (1 μM) pre-assembled with SUVs (500 μg ml^-1) and ATP (4 mM); 50 mM HEPES pH 7.5, 150 mM KCl, 20 mM MgCl2; 21,000 × g for 15 min; percent in the pellet by densitometry; 6% of Gfp-FtsZ in the pellet without …
[2] = target: Histidine-tagged Gfp-FtsZ (Escherichia coli); test: filter retention (ultrafiltration, 100 kDa filter); ZapE or ZapE(K84A) (5 μM) with Gfp-FtsZ (10 μM) and ATP (4 mM), without GTP; 50 mM MES pH 6.5, 100 mM KCl, 10 mM MgCl2, 23°C, 10 min; filtrate and retentate by SDS-PAGE and densitometry; ZapE alone retained 33.4%, ZapE(K84A) alone 50.3%
FtsZ (native) [3] = target: B4; test: cell-based or functional assay
[4] = substrate: Nc1ncnc2c1ncn2[C@@H]1O[C@H](COP(=O)(O)OP(=O)(O)OP(=O)(O)O)[C@@H](O)[C@H]1O; test: phosphate release (Biomol Green), Michaelis-Menten fit; type: biochemical, Escherichia coli; settings: 12 μM ZapE, ATP 0 to 5 mM, 50 mM HEPES pH 7.5, 150 mM KCl, 20 mM MgCl2, 23°C
FtsZ (native) [5] = target: B4; test: co-sedimentation; FtsZ (6 μM) with GTP (2 mM) or without GTP, with or without ZapE or ZapE(K84A) (8 μM), with or without ATP or ATPγS (4 mM); 50 mM HEPES pH 7.5, 150 mM KCl, 20 mM MgCl2, 23°C, 10 min; 250,000 × g for 20 min; supernatants and pellets by SDS-PAGE and Coomassie; settings: both partners purified
[6] = target: the molecule itself; test: as above

Molecule: Histidine-tagged Gfp-FtsZ
- percent of total Gfp-FtsZ in the phospholipid pellet [1]: 21.6%

B1: ZapE (N-terminal six histidine fusion protein) (enzyme, Escherichia coli, UniProt P64612 1-375, looked up)
chain: MQSVTPTSQYLKALNEGSHQPDDVQKEAVSRLEIIYQELINSTPPAPRTSGLMARVGKLWGKREDTKHTPVRGLYMWGGVGRGKTWLMDLFYQSLPGERKQRLHFHRFMLRVHEELTALQGQTDPLEIIADRFKAETDVLCFDEFFVSDITDAMLLGGLMKALFARGITLVATSNIPPDELYRNGLQRARFLPAIDAIKQHCDVMNVDAGVDYRLRTLTQAHLWLSPLHDETRAQMDKLWLALAGGKRENSPTLEINHRPLATMGVENQTLAVSFTTLCVDARSQHDYIALSRLFHTVMLFDVPVMTRLMESEARRFIALVDEFYERHVKLVVSAEVPLYEIYQGDRLKFEFQRCLSRLQEMQSEEYLKREHLAG
- percent of total ZapE retained on the filter [2]: 63.4%
- maximum 90° light scatter of FtsZ (8 μM) after addition of GTP (1.5 mM), ZapE 0 to 8 μM with ATP (4 mM) (FtsZ (native) [3]): > 2 fold

B2: ZapE (H6-ZapE) (Escherichia coli K-12) (protein)
chain: MQSVTPTSQYLKALNEGSHQPDDVQKEAVSRLEIIYQELINSTPPAPRTSGLMARVGKLWGKREDTKHTPVRGLYMWGGVGRGKTWLMDLFYQSLPGERKQRLHFHRFMLRVHEELTALQGQTDPLEIIADRFKAETDVLCFDEFFVSDITDAMLLGGLMKALFARGITLVATSNIPPDELYRNGLQRARFLPAIDAIKQHCDVMNVDAGVDYRLRTLTQAHLWLSPLHDETRAQMDKLWLALAGGKRENSPTLEINHRPLATMGVENQTLAVSFTTLCVDARSQHDYIALSRLFHTVMLFDVPVMTRLMESEARRFIALVDEFYERHVKLVVSAEVPLYEIYQGDRLKFEFQRCLSRLQEMQSEEYLKREHLAG
notes: full-length, N-terminal 6xHis tag kept, pET-28a, expressed in E. coli BL21 (λde3); calculated mass 44,583 Da; predominantly monomer
- Km [4]: 1700 ± 360 µM

B3: ZapE(K84A) (N-terminal histidine fusion protein) (enzyme, Escherichia coli, UniProt P64612 1-375, looked up)
chain: MQSVTPTSQYLKALNEGSHQPDDVQKEAVSRLEIIYQELINSTPPAPRTSGLMARVGKLWGKREDTKHTPVRGLYMWGGVGRGATWLMDLFYQSLPGERKQRLHFHRFMLRVHEELTALQGQTDPLEIIADRFKAETDVLCFDEFFVSDITDAMLLGGLMKALFARGITLVATSNIPPDELYRNGLQRARFLPAIDAIKQHCDVMNVDAGVDYRLRTLTQAHLWLSPLHDETRAQMDKLWLALAGGKRENSPTLEINHRPLATMGVENQTLAVSFTTLCVDARSQHDYIALSRLFHTVMLFDVPVMTRLMESEARRFIALVDEFYERHVKLVVSAEVPLYEIYQGDRLKFEFQRCLSRLQEMQSEEYLKREHLAG
notes: ZapE of Escherichia coli with the Walker A substitution K84A (defective for ATP hydrolysis); pET-28a, site-directed mutagenesis; also called H6-ZapE(K84A); His6-zapE(K84A); source: E. coli BL21 (λde3), purified (cobalt column, sephadex G25); not shown: His6, N-terminal, kept
- percent of ZapE(K84A) retained on the filter [2]: 80.2%
- binding result (FtsZ (native) [5]): binds

Molecule: B4
- binding result [6]: binds
